The RNAGym collection of RNA variant scans (doi:10.1073/pnas.2313332121)

B1: TPR t1 (parent)
chain: GACCAAUCUGCCCUCAGAGCUCGAGAACAUCUUCGGAUGCAGAGGAGGCAGGCUUCGGUGGCGCGAUAGCGCCAACGUCCUCAACCUCCAAUGCAUCCCACCACAUGAUGAUGCCUGAAGAGCCUUGGUUUUUUG

Variants of: B1
Assay: polymerase ribozyme fitness, log enrichment relative to wild type (log ratio); higher = more active; in vitro selection for triplet polymerase activity
Procedure, shortened: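 Streptavidin-bead capture of gel-excised extended constructs, followed by RT-PCR, closed a single triplicate in vitro selection round. That round began by annealing PCR-built, transcribed mutant libraries of each subunit of a heterodimeric triplet polymerase ribozyme with a biotinylated primer, the partner subunit and triplets, then incubating them frozen at −7 °C. After Illumina sequencing of inputs and outputs, genotypes needed ≥10 input reads and ≥1 read per output. Fitness is the base-2 logarithm of genotype enrichment over wild-type enrichment, using inverse-variance-weighted replicate averages.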

**Q.** For GACCAAUCUGCCCUCAGAGCUCGAGAACAUCUUCGGAUGCACCGGAGGCAGGCUUCGGUGGCGCGAUAGCACCAACGUCCACAACCUCCAAUGCAUCCCACCACAUGAUGAUGCCUGAAUAGCCUUGGUUUUUUG, which “polymerase ribozyme fitness (log ratio)” value is on record?
**A.** -6.28

**Q.** For GACCAAUCUGCCCUCAGAGCUCGAGAACAUCUUCGGAUGCACAGGCGGCAGGCUUCGGUGGUGCGAUAGCGCCAACGUCCUCAACCUCCAAUGCGGCCCACCACAUGAUGAUGCCUGAAGAGCCUUGGUUUUUUG, which “polymerase ribozyme fitness (log ratio)” value is on record?
**A.** -4

**Q.** For GACCAAUCUGCCCUCAGAGCUCGAGAACAUCUUCGGAUGCACAGGUGGCAGGCUUCGGUGGCGCGAUAGCGCCAACGUCCUCAACCUCCAAUGCAUCCCACCACAUGAUGAUGCCUGAAGAGCCUUGGUUUUUUG, which “polymerase ribozyme fitness (log ratio)” value is on record?
**A.** -2.24

**Q.** Which “polymerase ribozyme fitness (log ratio)” value does the source give for GACCAAUCUGCCCUCAGAGCUCGAGAACAUCUUCGGAUGCACAGGUGGCAGGCUUCGGUCGCGCGAUAGCGCCAACGUCCUCAACCUCCAAUGCAUCCCACCACAUGAUGAUGCCUGAAGAGCCUUGGUUUUUUG here?
**A.** -2.77

**Q.** With GACCAAUCUGCCCUCAGAGCUCGAGAACAUCUUCGGAUGCACAGGAGGCAGGCUUCGGUGGCGCGAUAGCGCCAACGUCCUCAACCUCCAGUGCAUCCCACCACAUGAUGAAGCCUGAAGAGCCUUGGUUUUUUG as the variant, how does the “polymerase ribozyme fitness (log ratio)” value read?
**A.** -0.613

**Q.** For GACCAAUCUGCCCUCAGAGCUCGAGAACAUCUUCGGAUGCACAGGAGGCAGGCUUCGGUGGCGCGAUAGCGCCAACGUCCUCAACCUCCAAUGCAUCCCACCACAUGAUGGUGCCUGAAGCGCCUUGGUUUUUUG, which “polymerase ribozyme fitness (log ratio)” value is on record?
**A.** -1.57

**Q.** For GACCAAUCUGCCCUCAGAGCUCGAGAACAUCUUCGGAUGCACAGGAGGCAGGCUUUGGUGGCGCGAUAUCGCCAACGUCCUCAACCUCCAAUACAUCCCACCACAUGAUGAUGCCUGAACAGCCUUGGUUGUUUG, which “polymerase ribozyme fitness (log ratio)” value is on record?
**A.** -3.67

**Q.** With GACCAAUCUGCCCUCAGAGCUCGAGAACAUCUUCGGAUGCACAGGAGGCAGGCUUCGGUGGCGAGAUAGCGCCAACGUCCUCAACCUCCAAUGCAUCCCACCACAUGAUGAUGCCUGAAGAGCCUUGGUUUUUUG as the variant, how does the “polymerase ribozyme fitness (log ratio)” value read?
**A.** -7.59

**Q.** With GACCAAUCUGCCCUCAGAGCUCGAGAACAUCUUCGGAUGCACAGGAGGCAGGCUUCGGUGGCGCGAUAGAGCCAACGUCCUCAACCUCCAAUGCAUCCCACCACAUGAUGAUGCCUGAAGAGCCUUGGUUUUUUG as the variant, how does the “polymerase ribozyme fitness (log ratio)” value read?
**A.** -4.99

**Q.** For GACCAAUCUGCCCUCAGAGCUCGAGAACAUCUUCGGAUGCACACGAGGCAGGCUUUGGUGGCGCGAUAGCGCCAACGUCCUCAACCUCCAAUGCAUCCCACCAUAUGAUGAUGCCUGAAGAGCCUUGGUUUUUUG, which “polymerase ribozyme fitness (log ratio)” value is on record?
**A.** -0.811

**Q.** For GACCAAUCUGCCCUCAGAGCUCGAGAACAUCUUCGGAUGCACACGAGGCAGGCUUCGGUGGCGCGAUAGCGCCAACGUCCCCAACCUCCAAUGCAUCCCACCACAUGAUGAUGCCUGAAAAGCCUUGGUUUUUUG, which “polymerase ribozyme fitness (log ratio)” value is on record?
**A.** -2.45

**Q.** With GACCAAUCUGCCCUCAGAGCUCGAGAACAUCUUCGGAUGCACAUGAGGCAGGCUUCGGUGGCGGGAUAGCGCCAACGUCCUCAACCUCCAAUGCAUCCCACCACAUGAUGAUUCCUGAAGAGCCUUGGUUUUUUG as the variant, how does the “polymerase ribozyme fitness (log ratio)” value read?
**A.** -5.99

**Q.** For GACCAAUCUGCCCUCAGAGCUCGAGAACAUCUUCGGAUGCACAGGAGACAGGCUUCGGUGGCGCGAUAGCGGCAACGUCCUCAACCUCCAAUGCAUCCCACCACAUGAUGAUGCCUGAAAAGCCUUGGUUUUUUG, which “polymerase ribozyme fitness (log ratio)” value is on record?
**A.** -1.67

**Q.** Which “polymerase ribozyme fitness (log ratio)” value does the source give for GACCAAUCUGCCCUCAGAGCUCGAGAACAUCUUCGGAUGCACAGGAGGCAGACUUCGGUUGCGCGAUAGCGCCAACGUCCUCAACCUCCAAUGCAUCCCAUCAAAUGAUGAUGCCUGAAGAGCCUUGGUUUUUUG here?
**A.** -5.59

**Q.** With GACCAAUCUGCCCUCAGAGCUCGAGAACAUCUUCGGAUGCACAGGAGGCAGGCUUCAGUGGCGCGAUAGCGCCAACGUCCUCAACCUCCAAUGCAUCCCACCACAUGAUGAUGCCUGAAGAGCCUUGGUUUUUUG as the variant, how does the “polymerase ribozyme fitness (log ratio)” value read?
**A.** -3.88

**Q.** For GACCAAUCUGCCCUCAGAGCUCGAGAACAUCUUCGGAUGCACAGGAGGCAGGCUUCAGUGGCGCGAUAGCGCCAACGUCCUCAACCUCCAAUGCAUCCCACCACUUGAUGAUGCCUGAAGAGCCUUGGUUUUUUG, which “polymerase ribozyme fitness (log ratio)” value is on record?
**A.** -5.05

**Q.** Which “polymerase ribozyme fitness (log ratio)” value does the source give for GACCAAUCUGCCCUCAGAGCUCGAGAACAUCUUCGGAUGCACAGGAGGCAGGCUUCGAUGGCGCGAUAGCGCCAACGUCCUCAACCUCCAAUGCAUCCCACCACAUGAUGAUGCCUGAAUAGCCUUGGUUUUUUG here?
**A.** -1.82

**Q.** Which “polymerase ribozyme fitness (log ratio)” value does the source give for GACCAAUCUGCCCUCAGAGCUCGAGAACAUCUUCGGAUGCACAGGAGGCAGGCUUCGGUCGCGCGAUAGCGCCAACCACCUCAACCUCCAAUGCAUCCCACCACAUGAUGAUGCCUGAAGAGCCUUGGUGUUUUC here?
**A.** -3.55

**Q.** For GACCAAUCUGCCCUCAGAGCUCGAGAACAUCUUCGGAUGCACAGGAGGCAGGCUUCGGUGACGCGAUAGCGCCAACGUCCUUAACCUCCAAUGCAUCCCACCACAUGAUGAUGCCAGAAGAGCCUUGGUUUUUUG, which “polymerase ribozyme fitness (log ratio)” value is on record?
**A.** -4.34

**Q.** Which “polymerase ribozyme fitness (log ratio)” value does the source give for GACCAAUCUGCCCUCAGAGCUCGAGAACAUCUUCGGAUGCACAGGAGGCAGGCUUCGGUGUCGCGAUAGCGCCAACGUCCUCAACCUCCAAUGCAUCCCACCACAUGAUGAUGCCUGAAGAGCCUUGGUUUUUUG here?
**A.** -1.04

**Q.** With GACCAAUCUGCCCUCAGAGCUCGAGAACAUCUUCGGAUGCACAGGAGGCAGGCUUCGGUGGCACGAUAGCGCCAACGUCCUCAACCUCCAAUGCAUCCCACCACAUGAUGAUGCCUGAAGAGCCUUGGUUUUUUG as the variant, how does the “polymerase ribozyme fitness (log ratio)” value read?
**A.** -3.47
